The numbers were not newly measured in patent publication USRE43135E1, “Method of improving dough and bread quality” (Danisco A/S, priority 2001, dated 2012), which cites them from elsewhere.

For data set [1] the following is noted: enzyme expressed in a baculovirus system, Matos et al; cited from earlier work.
For data set [2] the following is noted: Withers-Martinez et al; cited from earlier work.

With “43 KDa protein from drought-stressed cowpea: galactolipid acyl hydrolase of Matos et al, expressed in a baculovirus system; amino acid sequence SEQ ID No. 1”, in data set [1], the “activity on triacylglycerol (triglyceride)” value is reported as “no activity”, the “galactolipid acyl hydrolase activity” value is “preferentially galactolipid acyl hydrolase activity” and the phospholipid activity result is “some phospholipid activity”.

B1: HPL: human pancreas lipase (protein, UniProt P16233 17-465, looked up)
Pancreatic triacylglycerol …: KEVCYERLGCFSDDSPWSGITERPLHILPWSPKDVNTRFLLYTNENPNNFQEVAADSSSISGSNFKTNRKTRFIIHGFIDKGEENWLANVCKNLFKVESVNCICVDWKGGSRTGYTQASQNIRIVGAEVAYFVEFLQSAFGYSPSNVHVIGHSLGAHAAGEAGRRTNGTIGRITGLDPAEPCFQGTPELVRLDPSDAKFVDVIHTDGAPIVPNLGFGMSQVVGHLDFFPNGGVEMPGCKKNILSQIVDIDGIWEGTRDFAACNHLRSYKYYTDSIVNPDGFAGFPCASYNVFTANKCFPCPSGGCPQMGHYADRYPGKTNDVGQKFYLDTGDASNFARWRYKVSVTLSGKKVTGHILVSLFGNKGNSKQYEIFKGTLKPDSTHSNEFDSDVDVGDLQMVKFIWYNNVINPTLPRVGASKIIVETNVGKQFNFCSPETVREEVLLTLTPC
As for B1, the activity on triglyceride result in data set [2] was “only activity on triglyceride”.

B2: GPLRP2: guinea pig pancreatic lipase-related protein 2 (protein, UniProt P81139 1-434, looked up)
Pancreatic lipase-related …: AEVCYSHLGCFSDEKPWAGTSQRPIKSLPSDPKKINTRFLLYTNENQNSYQLITATDIATIKASNFNLNRKTRFIIHGFTDSGENSWLSDMCKNMFQVEKVNCICVDWKGGSKAQYSQASQNIRVVGAEVAYLVQVLSTSLNYAPENVHIIGHSLGAHTAGEAGKRLNGLVGRITGLDPAEPYFQDTPEEVRLDPSDAKFVDVIHTDISPILPSLGFGMSQKVGHMDFFPNGGKDMPGCKTGISCNHHRSIEYYHSSILNPEGFLGYPCASYDEFQESGCFPCPAKGCPKMGHFADQYPGKTNAVEQTFFLNTGASDNFTRWRYKVTVTLSGEKDPSGNINVALLGKNGNSAQYQVFKGTLKPDASYTNSIDVELNVGTIQKVTFLWKRSGISVSKPKMGASRITVQSGKDGTKYNFCSSDIVQENVEQTLSPC
Regarding B2, in data set [2], the “activity on galactolipids and phospholipids” value is “has activity on galactolipids and phospholipids”; the activity on triglyceride result is reported as “reduced activity”.
